Source: patent US20230189818A1, “RNA-BASED CONTROL OF BOTRYTIS” (priority 2021, published 2023)

How the values were obtained:
[1] = test system: Botrytis cinerea conidia; assay: In vitro liquid-based assay (fungal biomass, 96-well plates, Cytation 5); type: cell-based; conditions: co-incubated with conidia for three days, vs untreated control
Description: Fungal culture. The Botrytis cinerea was plated each week the culture onto Malt Extract Agar (MEA) from long-term storage on silica stored at 4° C. Three pellets of silica were added to the center of a MEA agar plate and grown at room temperature without parafilm/tape seal for 10-14 days before use; a culture 12 days old was typically used.
Spore and media preparation. A pure culture of B. cinerea was flooded with a 0.01% Triton x-100 solution and conidia scraped free with a sterile hockey stick. The suspension was transferred to two, 1.5 mL centrifuge tubes and centrifuged at 8000 rpm for two minutes. The supernatant was discarded, pelleted spores washed twice with sterile water, then resuspended in sterile water. Conidia were quantified using a hemacytometer and diluted to a final concentration of 5000 conidia/mL stock. A stock solution of 1.25× minimal media was prepared for the assay setup using the components below. Once the stock solution was made, the pH was adjusted to 6.0 using NaOH or KOH, then filter sterilized through a 0.2 um filter tower and vacuum pump and stored at 4° C. The Kao & Michayluk Vitamins (100×) is a filter sterilized stock solution. The stock contains vitamins and amino acids as described by Kao & Michayluk. After filter sterilization, 20 mg of 4-Aminobenzoic acid in 100 ml of solution was added.
Experimental setup. Screening assays were setup in 96-well plates with conidia co-incubated with treatments (controls and dsRNAs) for three days before determining fungal biomass. Each treatment was replicated eight times within a single plate. In each well consisted of 12.5 μl of conidia suspension, 25 μl of the treatment, 12.5 μl of sterile deionized water, and 200 μl of minimal media. Each plate was covered with a breath right film and placed in the percival growth chamber at 23° C. on the shaking platform set to 120 RPM with 24-hour lighting. Plates were incubated for 72 hours before determining fungal growth.
Reading assay plate. Fungal biomass was determined by reading plates with the Cytation 5 machine. The program was set to compile 8 photo slices per well under brightfield microscopy with a 2.5× lens to measure biomass.
Data analysis. Analysis will automatically run on Cytation5 to determine final biomass.
Results are shown in Table 1B representing the average reduction in biomass vs. control for tested sequences across several runs described above.

[2] = test system: Botrytis cinerea isolate (B05.10); assay: Detached leaf assay (tomato leaflets, lesion size); type: in vivo; conditions: five days post inoculation, vs untreated inoculated control
Description: Plant tissue. Tomato plants, variety Brandywine, were grown in the greenhouse for 3 weeks before harvesting the first true leaves for assays. Nodes 2-4 were prioritized for harvest and only lateral leaflets were used for assays. Leaflets of approximately the same size were used each week and were randomized among treatments. Detached leaflets were immediately brought into the lab for treatment and used within 4 hours of harvest. Detached leaflets were kept at 4° C. until they were treated and placed onto a 1% water agar medium for incubation.
Fungal culture. A Botrytis cinerea isolate (B05.10) was preserved on silica for long-term storage and pulled from these tubes stored at 4° C. for growth on a nutritive medium. Three pellets of silica were added to the center of a Malt Extract Agar (MEA) agar plate and grown at room temperature without parafilm/tape seal for ˜14 days, or until abundant conidia formation, before use.
Treatment of leaflets. Leaflets were treated 24 hours before inoculation and applied using an atomizer to get a fine mist of small droplets entirely covering the leaflet. Silwet L-77 was used as a spreader and added for a 0.03% final concentration (Silwet L-77 brand Phyto Technology Laboratories, S7777 Lot #14D7777001 F). The inoculated control was sprayed with the same volume of sterile DI water with Silwet L-77 in the absence of fungicide or experimental material. Leaflets were spray treated by laying them on a paper towel and holding the atomizer ˜6″ away from the leaflet for applications. Treated leaves were placed on a 1% water agar (10 g Bacto Agar, Difco, in 1 L deionized water, sterilized for 30 minutes at 121° C. and poured when reached a temp of 55° C. into 100×20 mm Petri dishes), with lids of the Petri dishes placed back on before putting Petri dishes under plastic bags to maintain humidity before inoculation the following day. Petri dishes of treated leaflets were left on the lab counter until the following day. Each treatment was replicated ten times with each replicate being a single treated leaflet with two inoculation sites, one on each side of the leaf midvein.
Inoculation. The conidial suspension was prepared by pouring a 7% white grape juice solution onto the culture plate, then scraping the plate with a sterile spatula to dislodge the spores and mycelia. The grape juice solution was prepared by mixing Welch's brand organic white grape juice into sterile deionized water. After dislodging the spores and mycelia of the culture, the suspension was poured through two layers of cheesecloth to remove fungal mycelia and catch the conidial suspension in a clean 50 mL conical tube. Approximately 3 uL of TWEEN 20 was added to conidial suspension to prevent sticking to conical tube. The spore concentration was determined using a Neubauer Improved hemocytometer and inoculum was diluted with more 7% grape juice until a spore concentration of 1×10^5 conidia/mL was reached. Inoculum was used to inoculate host tissue within 2 hours of preparation. Each tomato leaflet was inoculated twice, with inoculation sites placed one per side of the leaflet midvein. A 10 μL volume of spore suspension was placed at each inoculation site using a repeater pipette. Special care was taken not to touch the tip to leaflet surface to avoid contamination between treatments.
Incubation. Petri dishes were placed on lunch trays 6 plates high and moved to an incubator. The incubator was humidity controlled and holds at ˜75% relative humidity. The incubator was kept on 12/12 light/dark days and is set to a temperature of 23° C.
Rating. Measurements were taken at five days post inoculation (DPI). Each lesion that developed was measured using electronic calipers in 2 directions perpendicular to each other to help determine lesion diameter.
Data analysis. Data was analyzed using the SAS JMP statistical program (version 13.2.1) with comparisons made to the untreated, inoculated control. […]

[3] = test system: Botrytis cinerea B05.10 isolate; assay: Greenhouse whole plant assay (tomato 'Lanai', disease severity); type: in vivo; conditions: final rating day (rating #3)
Description: Plant Tissue: Tomato seedlings, variety “Lanai”, were seeded then thinned to one plant per pot in an 18 cell tray. […] Plants were grown at a 23° C./17° C. day/night temperature with 10 hours of light each 24-hour period. The RH was ambient and plants were fertilized two times a day every day except for Sunday when they received only water. Plants were grown using Fafard brand medium (70-80% sphagnum peat moss, perlite, vermiculite, dolomite limestone and watering agent) for the entire experiment.
Fungal culture. A Botrytis cinerea B05.10 isolate was maintained, and spores were harvested as previously described for detached leaf assays, except a grape juice additive was not used for inoculum preparation.
Treatment of plants. Whole tomato plants were treated ˜24 hours before inoculation using the spray booth. A 0.07% Silwet L-77 solution was used as a spreader and added for a 0.07% final volume in water (Silwet L-77 brand Phyto Technology Laboratories, S7777 Lot #14D7777001 F). The spray booth deck was set to 20″ above the plant canopy and a twinjet 8002EVS nozzle with 100 mesh filter placed into the spray mechanism. The spray boom was calibrated before treatment application with specs as follows: 50 GPA rate, 1.25 MPH speed, 6′ spray length, single pass, and at 45 psi to get a catch of 133 mL in 10 seconds (+/−6 mL). Each treatment was replicated ten times for each experimental run.
Inoculation. Plants were inoculated using a mist-o-matic applicator, which is pressurized by manual pumping. The inoculum suspension was poured into the mist-o-matic immediately before inoculation in the GH space. The containers were only filled half-way and inoculum was applied evenly to the surface of all foliage with even coverage.
Incubation. Plants were incubated inside of a 40″ tall humidity chamber supported by PVC pipe and covered in 3M translucent plastic. A humidifier was inside the chamber and set to low and continuous humidity (filled with tap water). The temperature was D:24-20° C./N:20-18° C. with 15 hours of light, of which 9 hours was with supplemental lighting. RH was ambient and watering occurred everyday by sub-irrigation with the bench being flooded for 10 minutes before draining.
Rating. Tomato plants were rated three times during the two-week experiment with rating starting four days post-inoculation and occurring every three to four days after the initial rating date. Plants were rated for the number of lesions and disease severity, which is the percentage of the plant that was symptomatic including necrotic lesions, pathogen sporulation, and chlorosis.
Data analysis. […] Percent disease severity (%DS) was determined by the percent area of the tomato foliage with symptoms including lesions, chlorosis, necrosis, and wilting. Disease severity was rated at three dates (Rating #) over the 12-day test period. Treatments were compared to the untreated, inoculated control and a chemical standard. Statistical analysis was done using SAS JMP version 13.2.1 with treatments compared to the untreated, inoculated control and a chemical standard using Tukey-Kramer and student's T tests.

B1: GS413: dsRNA trigger targeting B. cinerea NBP35 (XM_001552213.2); trigger SEQ ID NO 15, RNA 27, reverse complement 39 (nucleic acid, listed as Botrytis cinerea)
sense: GCAAAAUUCCAUUGUUGCUUUGUAAACAUCCAUCCUACGACUUUAUUAUCUCAUCGAUCAUCCCACAAUUUACAUUUUCCAUUUUACACUCAAUAAACAAUUGAAAAACAAUAUUCUGAGUUGGUCGCAGUAAAUCAUGGCUCCAUCUCUUGAGGAAAGGCCCGAUGCUGUGCAAGACGUCCUCUCAAAUCCUCUCAAAAAUGCUCCCAAACUUGUCGCCCCAGAACCUGAACAUUGUCCCGGUCCAGAAUCCGAAGCGGCGGGAAAGGCAGAUUCUUGCGCGGGCUGUCCAAACCAAGCCAUAUGCGCAUCCGCACCCAAAGGUCCCGAUCCAGAUAUUCCAGCUAUAACUGCACGUCUUGCUGGUAUCAAACAUAAAGUCUUAAUUCUGUCGGGGAAAGGUGGUGUAGGAAAAAGCACAUUUACAACUUUACUUGCACAUGCCUUCGCAACAAAUGAGGACAACACAGUAGGAAUCAU
antisense: AUGAUUCCUACUGUGUUGUCCUCAUUUGUUGCGAAGGCAUGUGCAAGUAAAGUUGUAAAUGUGCUUUUUCCUACACCACCUUUCCCCGACAGAAUUAAGACUUUAUGUUUGAUACCAGCAAGACGUGCAGUUAUAGCUGGAAUAUCUGGAUCGGGACCUUUGGGUGCGGAUGCGCAUAUGGCUUGGUUUGGACAGCCCGCGCAAGAAUCUGCCUUUCCCGCCGCUUCGGAUUCUGGACCGGGACAAUGUUCAGGUUCUGGGGCGACAAGUUUGGGAGCAUUUUUGAGAGGAUUUGAGAGGACGUCUUGCACAGCAUCGGGCCUUUCCUCAAGAGAUGGAGCCAUGAUUUACUGCGACCAACUCAGAAUAUUGUUUUUCAAUUGUUUAUUGAGUGUAAAAUGGAAAAUGUAAAUUGUGGGAUGAUCGAUGAGAUAAUAAAGUCGUAGGAUGGAUGUUUACAAAGCAACAAUGGAAUUUUGC
- Average % Reduction in Biomass ([1]; 25 ppm dsRNA): 14%
- Average % Reduction in Biomass ([1]; 150 ppm dsRNA): 53%
- Average % Reduction in Lesion Size ([2]; 30 ppm): 35.58%
- Average % Reduction in Lesion Size ([2]; 50 ppm): 20.66%
- % control ([3]; 8 g ai/ha, two runs, three-week-old 'Lanai' tomato plant): 34%
- % control ([3]; 25 g ai/ha, two runs, three-week-old 'Lanai' tomato plant): 26%

B2: GS659: dsRNA trigger targeting B. cinerea SDH (XM_001548300.2_200_pos_342); trigger SEQ ID NO 16, RNA 28, reverse complement 40 (nucleic acid, listed as Botrytis cinerea)
sense: UCAGAUGCGAACCAUGGCAUCAGUCGACAGCUCAGUACCUGAAAGUCCUACCGUUUCUCCAUCCCGUCCUGUCGAAUCUGCUUCCAAGACCUCCACUGUCAAGGAACCUGCUGCCGACUCGGAGUCUUUGAUCAAGACAUUCAACAUUUACAGAUGGAACCCAGAUGAGCCAACCAGCAAGCCCCGCAUGCAAUCUUACA
antisense: UGUAAGAUUGCAUGCGGGGCUUGCUGGUUGGCUCAUCUGGGUUCCAUCUGUAAAUGUUGAAUGUCUUGAUCAAAGACUCCGAGUCGGCAGCAGGUUCCUUGACAGUGGAGGUCUUGGAAGCAGAUUCGACAGGACGGGAUGGAGAAACGGUAGGACUUUCAGGUACUGAGCUGUCGACUGAUGCCAUGGUUCGCAUCUGA
- Average % Reduction in Biomass ([1]; 25 ppm dsRNA): 12%
- Average % Reduction in Biomass ([1]; 150 ppm dsRNA): 28%
- Average % Reduction in Lesion Size ([2]; 30 ppm): 21.31%
- Average % Reduction in Lesion Size ([2]; 50 ppm): 19.19%
- % control ([3]; 25 g ai/ha, three runs, four-week-old 'Lanai' tomato plant): 29%
